Reference: patent US20170184612A1, “USE OF LEUKOCYTES AND NOVEL BIOMARKERS IN THE DIAGNOSIS, CONFIRMATION, AND TREATMENT OF A NEUROLOGICAL DISORDER” (The Trustees of Columbia University in the City of New York, priority 2014, published 2017)

Molecular target: SIINFEKL-MHC-I (SIINFEKL peptide bound to MHC-I H-2Kb) (chicken; mouse)
Test: cell-based or functional assay

T cell receptor of OT-1 CD8+ T cells (TCR)
neuronal death (TH+ neurons killed by CTLs): 55%
